Measured values as given in US20230074436A1 (DENALI THERAPEUTICS, published 2023).
No end group written: not given here. *: point of attachment. Biotin = O=C1N[C@H]2[C@H](CS[C@H]2CCCCC(=O)*)N1

Assays:
asyn_113-127_121A [1] = target: T1, asyn_113-127_121A (human); assay: Ala-scan peptide ELISA, row D, run 1
T1 construct: substitution is already in the entry; also called pep10
T1 peptide: Biotin-LEDMPVDPANEAYEM

asyn_113-127_126A = target: T2, asyn_113-127_126A (human); assay: Ala-scan peptide ELISA, row D, run 1
T2 construct: substitution is already in the entry; also called pep16
T2 peptide: Biotin-LEDMPVDPDNEAYAM

asyn_113-127_120A [2] = target: T3, asyn_113-127_120A (human); assay: Ala-scan peptide ELISA, row D, run 1
T3 construct: substitution is already in the entry; also called pep9
T3 peptide: Biotin-LEDMPVDADNEAYEM

asyn_113-127_119A = target: T4, asyn_113-127_119A (human); assay: Ala-scan peptide ELISA, row D, run 1
T4 construct: substitution is already in the entry; also called pep8
T4 peptide: Biotin-LEDMPVAPDNEAYEM

asyn_113-127_124P = target: T5, asyn_113-127_124P (human); assay: Ala-scan peptide ELISA, row D, run 1
T5 construct: substitution is already in the entry; also called pep14
T5 peptide: Biotin-LEDMPVDPDNEPYEM

asyn_113-127_124G = target: T6, asyn_113-127_124G (human); assay: Ala-scan peptide ELISA, row D, run 1
T6 construct: substitution is already in the entry; also called pep13
T6 peptide: Biotin-LEDMPVDPDNEGYEM

asyn_113-127_115A = target: T7, asyn_113-127_115A (human); assay: Ala-scan peptide ELISA, row D, run 1
T7 construct: substitution is already in the entry; also called pep4
T7 peptide: Biotin-LEAMPVDPDNEAYEM

asyn_113-127_127A = target: T8, asyn_113-127_127A (human); assay: Ala-scan peptide ELISA, row D, run 1
T8 construct: substitution is already in the entry; also called pep17
T8 peptide: Biotin-LEDMPVDPDNEAYEA

asyn_113-127_113A [3] = target: T9, asyn_113-127_113A (human); assay: Ala-scan peptide ELISA, row D, run 1
T9 construct: substitution is already in the entry; also called pep2
T9 peptide: Biotin-AEDMPVDPDNEAYEM

asyn_113-127_125A [4] = target: T10, asyn_113-127_125A (human); assay: Ala-scan peptide ELISA, row D, run 1
T10 construct: substitution is already in the entry; also called pep15
T10 peptide: Biotin-LEDMPVDPDNEAAEM

asyn_113-127_116A [5] = target: T11, asyn_113-127_116A (human); assay: Ala-scan peptide ELISA, row D, run 1
T11 construct: substitution is already in the entry; also called pep5
T11 peptide: Biotin-LEDAPVDPDNEAYEM

asyn_113-127 [6] = target: T12, asyn_113-127 (human); assay: Ala-scan peptide ELISA, row D, run 1
T12 construct: also called pep1
T12 peptide: Biotin-LEDMPVDPDNEAYEM

asyn_113-127_123A [7] = target: T13, asyn_113-127_123A (human); assay: Ala-scan peptide ELISA, row D, run 1
T13 construct: substitution is already in the entry; also called pep12
T13 peptide: Biotin-LEDMPVDPDNAAYEM

asyn_113-127_117A [8] = target: T14, asyn_113-127_117A (human); assay: Ala-scan peptide ELISA, row D, run 1
T14 construct: substitution is already in the entry; also called pep6
T14 peptide: Biotin-LEDMAVDPDNEAYEM

asyn_113-127_118A [9] = target: T15, asyn_113-127_118A (human); assay: Ala-scan peptide ELISA, row D, run 1
T15 construct: substitution is already in the entry; also called pep7
T15 peptide: Biotin-LEDMPADPDNEAYEM

asyn_113-127_122A = target: T16, asyn_113-127_122A (human); assay: Ala-scan peptide ELISA, row D, run 1
T16 construct: substitution is already in the entry; also called pep11
T16 peptide: Biotin-LEDMPVDPDAEAYEM

asyn_113-127_114A = target: T17, asyn_113-127_114A (human); assay: Ala-scan peptide ELISA, row D, run 1
T17 construct: substitution is already in the entry; also called pep3
T17 peptide: Biotin-LADMPVDPDNEAYEM

[10] = target: biotinylated human alpha-synuclein (human, UniProt P37840 1-140); assay: Ala-scan peptide ELISA, row D, run 1
asyn_113-127_121A [11] = target: T1, asyn_113-127_121A; assay: Ala-scan peptide ELISA, row D, run 2
asyn_113-127_120A [12] = target: T3, asyn_113-127_120A; assay: Ala-scan peptide ELISA, row D, run 2
asyn_113-127_113A [13] = target: T9, asyn_113-127_113A; assay: Ala-scan peptide ELISA, row D, run 2
asyn_113-127_125A [14] = target: T10, asyn_113-127_125A; assay: Ala-scan peptide ELISA, row D, run 2
asyn_113-127_116A [15] = target: T11, asyn_113-127_116A; assay: Ala-scan peptide ELISA, row D, run 2
asyn_113-127 [16] = target: T12, asyn_113-127; assay: Ala-scan peptide ELISA, row D, run 2
asyn_113-127_123A [17] = target: T13, asyn_113-127_123A; assay: Ala-scan peptide ELISA, row D, run 2
asyn_113-127_117A [18] = target: T14, asyn_113-127_117A; assay: Ala-scan peptide ELISA, row D, run 2
asyn_113-127_118A [19] = target: T15, asyn_113-127_118A; assay: Ala-scan peptide ELISA, row D, run 2
[20] = target: T18, human alpha-synuclein monomer (human, UniProt P37840 1-140); assay: ELISA, coated human alpha-synuclein
[21] = target: human alpha-synuclein oligomers (human, UniProt P37840 1-140); assay: competition ELISA: oligomers titrated in solution against 0.6 nM antibody, free antibody read on aSyn-coated plate
[22] = target: T19, alpha-synuclein peptide 95-140 (human); assay: ELISA, plate coated with the peptide or protein, antibody titrated, anti-rat HRP, A450
T19 construct: synthetic peptide coated on plate

[23] = target: alpha-synuclein peptide 1-112 (human); assay: as above
[24] = target: T18, human alpha-synuclein monomer; assay: as above
[25] = target: T20, alpha-synuclein peptide 1-95 (human); assay: as above
T20 construct: synthetic peptide coated on plate

[26] = target: T21, alpha-synuclein peptide 1-61 (human); assay: as above
T21 construct: synthetic peptide coated on plate

- A450 (asyn_113-127_121A [1]): 0.358 OD
- A450 (asyn_113-127_126A): 0.375 OD
- A450 (asyn_113-127_120A [2]): 0.277 OD
- A450 (asyn_113-127_119A): 0.051 OD
- A450 (asyn_113-127_124P): 0.044 OD
- A450 (asyn_113-127_124G): 0.336 OD
- A450 (asyn_113-127_115A): 0.332 OD
- A450 (asyn_113-127_127A): 0.357 OD
- A450 (asyn_113-127_113A [3]): 0.422 OD
- A450 (asyn_113-127_125A [4]): 0.047 OD
- A450 (asyn_113-127_116A [5]): 0.414 OD
- A450 (asyn_113-127 [6]): 0.421 OD
- A450 (asyn_113-127_123A [7]): 0.43 OD
- A450 (asyn_113-127_117A [8]): 0.431 OD
- A450 (asyn_113-127_118A [9]): 0.415 OD
- A450 (asyn_113-127_122A): 0.051 OD
- A450 (asyn_113-127_114A): 0.387 OD
- A450 [10]: 0.491 OD
- A450 (asyn_113-127_121A [11]): 0.335 OD
- A450 (asyn_113-127_120A [12]): 0.18 OD
- A450 (asyn_113-127_113A [13]): 0.339 OD
- A450 (asyn_113-127_125A [14]): 0.05 OD
- A450 (asyn_113-127_116A [15]): 0.366 OD
- A450 (asyn_113-127 [16]): 0.331 OD
- A450 (asyn_113-127_123A [17]): 0.321 OD
- A450 (asyn_113-127_117A [18]): 0.405 OD
- A450 (asyn_113-127_118A [19]): 0.357 OD
- antibody concentration at which ELISA is positive [20]: < 40 ng/mL
- IC50 [21]: 5.38 nM
- EC50 (read off the curve) [22]: ~0.3 µg/mL
- EC50 (read off the curve) [24]: ~0.2 µg/mL
B1: 20H4 (antibody, rat IgG2b, V domains shown)
VH: AVQLVESGGGLVQPKESLKISCAASGFTFSNAAMYWVRQAPGKGLELLARIRTKPNNYATYHADSVKGRFTISRDDSQSMVYLHMGNLKTEDTAMYYCTADMATGDYWGPGVMVTVSS
VL: DIQMTQSPPVLSVSVGDRVTLSCKASQNINKNLDWYQQKHGEAPKPLIYSTNNLQTGVPSRFSGSGSGTDYTLTISSLQPEDVATYYCYQYKSAWTFGGGTKLELR
notes: also called clone 20H4; rat 20H4
- binding result [23]: no binding (tested: 10 µg/ml (1 on the log axis))
- binding result [25]: no binding (tested: 10 µg/ml (1 on the log axis))
- binding result [26]: no binding (tested: 10 µg/ml (1 on the log axis))
